Assay results taken from publication PMC3043148 (Biochemistry, 2011).
Positions count from the first letter of the chain named. In names and notes the source's numbering stands. Read-outs that look alike come from different tables or passages of the source.

B1: human adenylosuccinate lyase (ASL), wild type, His-tag (enzyme)
chain: MAAGGDHGSPDSYRSPLASRYASPEMCFVFSDRYKFRTWRQLWLWLAEAEQTLGLPITDEQIQEMKSNLENIDFKMAAEEEKRLRHDVMAHVHTFGHCCPKAAGIIHLGATSCYVGDNTDLIILRNALDLLLPKLARVISRLADFAKERASLPTLGFTHFQPAQLTTVGKRCCLWIQDLCMDLQNLKRVRDDLRFRGVKGTTGTQASFLQLFEGDDHKVEQLDKMVTEKAGFKRAFIITGQTYTRKVDIEVLSVLASLGASVHKICTDIRLLANLKEMEEPFEKQQIGSSAMPYKRNPMRSERCCSLARHLMTLVMDPLQTASVQWFERTLDDSANRRICLAEAFLTADTILNTLQNISEGLVVYPKVIERRIRQELPFMATENIIMAMVKAGGSRQDCHEKIRVLSQQAASVVKQEGGDNDLIERIQVDAYFSPIHSQLDHLLDPSSFTGRASQQVQRFLEEEVYPLLKPYESVMKVKAE
B2: human adenylosuccinate lyase (ASL) R396H, His-tag (enzyme)
chain: B1 chain with R396H
B3: human adenylosuccinate lyase (ASL) L311V, His-tag (enzyme)
chain: B1 chain with L311V
B4: human adenylosuccinate lyase (ASL) R194C, His-tag (enzyme)
chain: B1 chain with R194C
B5: human adenylosuccinate lyase (ASL) R396C, His-tag (enzyme)
chain: B1 chain with R396C
B6: human adenylosuccinate lyase (ASL), wild type, non-His-tag (enzyme)
chain: B1 chain
B7: human adenylosuccinate lyase (ASL) R396H, non-His-tag (enzyme)
chain: B1 chain with R396H
B8: human adenylosuccinate lyase (ASL) R396C, non-His-tag (enzyme)
chain: B1 chain with R396C

Tests used:
[1] = molecular target: the molecule itself; assay: AUC
[2] = molecular target: the molecule itself; assay: AUC; remark: listed apart in the source
[3] = molecular target: B1; assay: in vitro subunit hybridisation with separation on Ni-NTA
[4] = molecular target: the molecule itself; assay: AUC; remark: listed apart in the source
[5] = molecular target: B1; assay: AUC
[6] = molecular target: B3; assay: AUC
[7] = molecular target: the molecule itself; assay: AUC; remark: listed apart in the source
[8] = molecular target: B1; assay: AUC; remark: listed apart in the source
[9] = molecular target: B3; assay: in vitro subunit hybridisation with separation on Ni-NTA
[10] = molecular target: B3; assay: AUC; remark: listed apart in the source
[11] = molecular target: B4; assay: AUC
[12] = molecular target: B4; assay: in vitro subunit hybridisation with separation on Ni-NTA
[13] = molecular target: B4; assay: AUC; remark: listed apart in the source

| subunit ratio (Non-His-tag: His-tag) by SDS-PAGE, pool 2 [3] | subunit ratio (Non-His-tag: His-tag) by SDS-PAGE, pool 3 [3] | percent tetramer (M-Tet model), pool 2 [5] [%] | percent tetramer (M-Tet model), pool 3 [5] [%] | Binder | stoichiometry N [1] | percent tetramer (M-Tet model) [2] [%] | further results |
| --- | --- | --- | --- | --- | --- | --- | --- |
|  |  |  |  | B1 | 4 | 77 |  |
|  |  |  |  | B2 | 4 |  |  |
|  |  |  |  | B3 | 4 | 68 |  |
|  |  |  |  | B4 | 4 | 73 |  |
|  |  |  |  | B5 | 4 | 78 |  |
| 1.3 non-His-tag per His-tag subunit | 3.7 His-tag per non-His-tag subunit | 73 | 75 | B6 |  |  | percent tetramer (M-Tet model), pool 1 [4]: 68% |
| 1.1 non-His-tag per His-tag subunit | 1.6 His-tag per non-His-tag subunit | 73 | 72 | B7 |  |  | stoichiometry N [6]: 4; stoichiometry N [7]: 4; stoichiometry N [8]: 4; subunit ratio (Non-His-tag: His-tag) by SDS-PAGE, pool 2 [9]: 1.8 non-His-tag per His-tag subunit; subunit ratio (Non-His-tag: His-tag) by SDS-PAGE, pool 3 [9]: 1 non-His-tag per His-tag subunit; percent tetramer (M-Tet model), pool 2 [10]: 74%; percent tetramer (M-Tet model), pool 3 [10]: 74% |
| 1.2 non-His-tag per His-tag subunit | 2.3 His-tag per non-His-tag subunit | 72 | 70 | B8 |  |  | stoichiometry N [11]: 4; stoichiometry N [7]: 4; stoichiometry N [8]: 4; subunit ratio (Non-His-tag: His-tag) by SDS-PAGE, pool 2 [12]: 1.2 non-His-tag per His-tag subunit; subunit ratio (Non-His-tag: His-tag) by SDS-PAGE, pool 3 [12]: 3.2 His-tag per non-His-tag subunit; percent tetramer (M-Tet model), pool 2 [13]: 78%; percent tetramer (M-Tet model), pool 3 [13]: 80% |
